How the values were obtained:
Type in all cases: cell-based, human
[1] = test system: wild-type and variant SNAP-GIPR; experiment: Single-concentration GIP cAMP response by HTRF in INS-1 cells; conditions: Fig S3E, mean
Procedure: (§1) All variants were tested in parallel on each occasion to control for transfection efficiency differences between experiments.

[2] = test system: wild-type and variant SNAP-GIPR; experiment: Constitutive and agonist-mediated internalization, reversible SNAP-tag labelling, AD293 cells; parameters: key to Internalisation, Vehicle / Internalisation, +GIP / Internalisation, GIP-only: % internalization: residual fluorescence after Mesna vs pre-Mesna; Surface expression: unit not given here; conditions: Mean
In short: (§2)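 % internalization = residual specific fluorescence after Mesna / pre-Mesna value. Imaging in TNE buffer pH 8.6; second image 10 min post-Mesna.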

[3] = test system: wild-type and variant SNAP-GIPR; experiment: Single-concentration GIP cAMP response by HTRF in AD293 cells; conditions: Fig S3F, HTRF, mean;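 also: ratio to experiment-wide average response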
Procedure: as §1

[4] = test system: wild-type and variant SNAP-GIPR; experiment: Surface SNAP-GIPR expression (SNAP-tag labelling) in AD293 cells; conditions: for AD293 Surface: Fig S3E, mean; for Surface SNAP-GIPR expression: sheet Fig 1C;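 as to all read-outs here: scaled to the experimental average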
In short: (§3)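 Surface GIPR is quantified from wide-field images after labelling intact transfected cells with a membrane-impermeant SNAP probe at 500 nM for 10 min at room temperature. Specific signal, corrected for nontransfected cells, is normalized to the experiment-wide average or to wild-type.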

[5] = test system: wild-type and variant SNAP-GIPR; experiment: cADDis cAMP imaging in AD293 cells, ensemble, expression-matched and per decile; conditions: Fig S3F, cADDis, mean
In short: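 Per-cell cAMP from cADDis intensity over time, with cells excluded by IBMX/FSK response criteria. Expression matching used wild-type surface-SNAP deciles, top and bottom trimmed, mean of decile means. Ensemble values ignore deciles. Wide-field imaging at 37 °C in KRBH with 6 mM glucose, 0.1% BSA, 24 h post-transfection in AD293.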

[6] = test system: wild-type and variant SNAP-GIPR; experiment: Constitutive and agonist-mediated internalization, reversible SNAP-tag labelling, INS-1 cells; parameters: key to Internalisation, GIP-only / Internalisation, Vehicle / Internalisation, +GIP: % internalization: residual fluorescence after Mesna vs pre-Mesna; conditions: Mean
In short: as §2

[7] = test system: wild-type and variant SNAP-GIPR; experiment: Surface SNAP-GIPR expression (SNAP-tag labelling) in INS-1 cells; conditions: Fig 4G; Mean
In short: as §3

B1: L262V (protein, UniProt P48546 22-466, looked up, variant L262V)
Gastric inhibitory …: RAETGSKGQTAGELYQRWERYRRECQETLAAAEPPSGLACNGSFDMYVCWDYAAPNATARASCPWYLPWHHHVAAGFVLRQCGSDGQWGLWRDHTQCENPEKNEAFLDQRLILERLQVMYTVGYSLSLATLLLALLILSLFRRLHCTRNYIHINLFTSFMLRAAAILSRDRLLPRPGPYLGDQALALWNQALAACRTAQIVTQYCVGANYTWLLVEGVYLHSLLVLVGGSEEGHFRYYLLVGWGAPALFVIPWVIVRYLYENTQCWERNEVKAIWWIIRTPILMTILINFLIFIRILGILLSKLRTRQMRCRDYRLRLARSTLTLVPLLGVHEVVFAPVTEEQARGALRFAKLGFEIFLSSFQGFLVSVLYCFINKEVQSEIRRGWHHCRLRRSLGEEQRQLPERAFRALPSGSGPGEVPTSRGLSSGTLPGPGNEASRELESYC
B1 was tested, and the “INS-1 cAMP (100 nM)” value [1] was 1.234, the “+GIP internalisation (100 nM)” value ([2]; Fig 4E, GIP 100 nM) was 0.6926 and the “GIP-specific internalisation (100 nM)” value ([2]; Fig 4E, GIP 100 nM) was 0.1787. For the same molecule, the “Constitutive internalisation (100 nM)” value ([2]; Fig 4E) was 0.5139, the Surface expression ([2]; Fig 4E) was 1.204 and the “Internalisation, +GIP” value ([2]; Fig S4C, AD293) was 57.508. For the same molecule, the “Internalisation, GIP-only” value ([2]; Fig S4C, AD293) was 14.8294, the “Internalisation, Vehicle” value ([2]; Fig S4C, AD293) was 42.6786 and the “AD293 100 pM HTRF” value ([3]; AD293, 100 pM) was 1.19. For the same molecule, the “AD293 100 nM HTRF” value ([3]; AD293, 100 nM) was 1.331, the “AD293 Surface” value ([4]; column repeated, paired with cAMP 100 nM) was 1.3 and the “AD293 Surface” value ([4]; paired with cAMP 100 pM) was 1.3. The “Surface SNAP-GIPR expression” value ([4]; replicate 1) was 1.375, the “Surface SNAP-GIPR expression” value ([4]; replicate 2) was 0.996 and the “Surface SNAP-GIPR expression” value ([4]; replicate 3) was 2.76. For the same molecule, the “Surface SNAP-GIPR expression” value ([4]; replicate 4) was 0.9875, the “Surface SNAP-GIPR expression” value ([4]; replicate 5) was 1.257 and the “Surface SNAP-GIPR expression” value ([4]; replicate 6) was 2.431. The “Surface SNAP-GIPR expression” value ([4]; replicate 7) was 1.521, the “Surface SNAP-GIPR expression” value ([4]; replicate 8) was 0.9638 and the “Surface SNAP-GIPR expression” value ([4]; replicate 9) was 1.328. The “Surface SNAP-GIPR expression” value ([4]; replicate 10) was 1.382, the “Surface SNAP-GIPR expression” value ([4]; replicate 11) was 1.153 and the “Surface SNAP-GIPR expression” value ([4]; replicate 12) was 1.188. For the same molecule, the “Surface SNAP-GIPR expression” value ([4]; replicate 13) was 1.165, the “Surface SNAP-GIPR expression” value ([4]; replicate 14) was 1.166 and the “Surface SNAP-GIPR expression” value ([4]; replicate 15) was 1.23. For the same molecule, the “Surface SNAP-GIPR expression” value ([4]; replicate 16) was 1.047, the “Surface SNAP-GIPR expression” value ([4]; replicate 17) was 1.27 and the “Surface SNAP-GIPR expression” value ([4]; replicate 18) was 1.238. For the same molecule, the “Surface SNAP-GIPR expression” value ([4]; replicate 19) was 0.9807, the “Surface SNAP-GIPR expression” value ([4]; replicate 20) was 0.8682 and the “Surface SNAP-GIPR expression” value ([4]; replicate 21) was 1.136. The “Surface SNAP-GIPR expression” value ([4]; replicate 22) was 1.402, the “Surface SNAP-GIPR expression” value ([4]; replicate 23) was 1.295 and the “Surface SNAP-GIPR expression” value ([4]; replicate 24) was 1.372. The “Surface SNAP-GIPR expression” value ([4]; replicate 25) was 1.308, the “Surface SNAP-GIPR expression” value ([4]; replicate 26) was 1.104 and the “Surface SNAP-GIPR expression” value ([4]; replicate 27) was 1.5. The “Surface SNAP-GIPR expression” value ([4]; replicate 28) was 1.095, the “Surface SNAP-GIPR expression” value ([4]; replicate 29) was 1.555 and the “Surface SNAP-GIPR expression” value ([4]; replicate 30) was 1.424. For the same molecule, the “Surface SNAP-GIPR expression” value ([4]; replicate 31) was 1.568, the “Surface SNAP-GIPR expression” value ([4]; replicate 32) was 1.239 and the “Surface SNAP-GIPR expression” value ([4]; replicate 33) was 1.116. The “Surface SNAP-GIPR expression” value ([4]; replicate 34) was 1.325, the “Surface SNAP-GIPR expression” value ([4]; replicate 35) was 1.446 and the “Surface SNAP-GIPR expression” value ([4]; replicate 36) was 1.136. The “Surface SNAP-GIPR expression” value ([4]; replicate 37) was 0.8646, the “Surface SNAP-GIPR expression” value ([4]; replicate 38) was 1.251 and the “Surface SNAP-GIPR expression” value ([4]; replicate 39) was 1.117. The “Surface SNAP-GIPR expression” value ([4]; replicate 40) was 1.314, the “Surface SNAP-GIPR expression” value ([4]; replicate 41) was 1.425 and the “AD293 100 pM cADDis” value ([5]; AD293, 100 pM) was 31.1728. For the same molecule, the “AD293 100 nM cADDis” value ([5]; AD293, 100 nM) was 39.27, the “+GIP internalisation (100 nM)” value ([6]; Fig 4G, GIP 100 nM) was 0.5955 and the “GIP-specific internalisation (100 nM)” value ([6]; Fig 4G, GIP 100 nM) was 0.1388. For the same molecule, the “Constitutive internalisation (100 nM)” value ([6]; Fig 4G) was 0.4567, the “Internalisation, +GIP” value ([6]; Fig S4C, INS-1) was 50.3417 and the “Internalisation, GIP-only” value ([6]; Fig S4C, INS-1) was 11.92. For the same molecule, the “Internalisation, Vehicle” value ([6]; Fig S4C, INS-1) was 38.4217 and the Surface expression [7] was 1.205.

From publication PMC13544220, “Glycemic and bodyweight effects of GIPR coding variation reflect differences in surface expression and intrinsic functional impairment” (Science Advances, 2026)
